Publication PMC4222252

Key:
[1] = target: His6-tagged HIV-1 integrase E10R/E13R (HIV-1)
[2] = target: His6-tagged HIV-1 integrase E10R/E13R/K42E (HIV-1)
[3] = target: His6-tagged HIV-1 integrase E10R/E13R (HIV-1); experiment: pull-down
[4] = target: His6-tagged HIV-1 integrase E10R/E13R/K42E (HIV-1); experiment: pull-down
[5] = target: His6-tagged HIV-1 integrase K42E (HIV-1); experiment: pull-down

lens epithelium-derived growth factor (LEDGF)/p75, wild type (from UniProt O75475 1-530) (natural protein)
concerted integration activity in vitro, percent of WT IN with WT LEDGF/p75 [1]: 53%
concerted integration activity in vitro, percent of WT IN with WT LEDGF/p75 [2]: 18%

LEDGF/p75 K401E/K402E/R405E (from UniProt O75475 1-530) (natural protein)
concerted integration activity in vitro, percent of WT IN with WT LEDGF/p75 [1]: 55%
concerted integration activity in vitro, percent of WT IN with WT LEDGF/p75 [2]: 78%
percent of the WT LEDGF/p75 bound by WT IN [3]: 11%
percent of the WT LEDGF/p75 bound by WT IN [4]: 15%
percent of the WT LEDGF/p75 bound by WT IN [5]: 42%
